Data reported in patent US20210139548A1 (published 2021).
*1 amine or outer side, *2 acyl side, *3 side chain or, on linkers, in order; H or OH if unused. Side-chain parts run from the residue outwards. The star is where a group is joined. C18 diacid = O=C(O)CCCCCCCCCCCCCCCCC(=O)*; γGlu = O=C(O)[C@H](CCC(=O)[*:2])N[*:1]; Isovaleryl = CC(C)CC(=O)*; AEEA = NCCOCCOCC(=O)O

T1: human neuropeptide Y2 receptor (human, UniProt P49146 1-381)
T1 construct: whole, on cells; also called hNPY2 receptor; hNPY2-R
T1 sequence (looked up): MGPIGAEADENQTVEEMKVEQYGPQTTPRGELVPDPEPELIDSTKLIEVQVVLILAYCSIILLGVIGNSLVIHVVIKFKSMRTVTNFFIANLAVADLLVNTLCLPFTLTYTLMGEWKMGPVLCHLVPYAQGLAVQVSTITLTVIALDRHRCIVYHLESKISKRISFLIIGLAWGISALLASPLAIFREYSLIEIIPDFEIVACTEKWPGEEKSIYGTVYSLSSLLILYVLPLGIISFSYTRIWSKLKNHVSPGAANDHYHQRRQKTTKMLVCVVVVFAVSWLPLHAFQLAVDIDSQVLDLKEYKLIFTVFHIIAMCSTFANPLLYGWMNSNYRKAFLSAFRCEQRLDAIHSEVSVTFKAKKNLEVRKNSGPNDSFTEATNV


Biological target: T1, human neuropeptide Y2 receptor
Assay: radioligand competition (125I-PYY(1-36)), hNPY2R membranes
Method: The filtration RLB assay was carried out in 96-well plates in a final volume of 100 μl per well. Freeze-dried test peptides were dissolved in 100% dimethyl sulfoxide (DMSO) to stock solutions of 1 mM and serial dilutions were performed in assay buffer (50 mM HEPES, 5 mM MgCl₂, 1 mM CaCl₂, pH 7.4) containing 0.2% ovalbumin. […] Next, 80 μL membranes (HTS066M, ChemiSCREEN™ Human Neuropeptide Y2 Receptor Membrane Preparation, CHEMICON) were added to each well to give a final protein concentration of 0.5 μg/well. The plates were sealed and incubated at room temperature for 2 hours in a plate shaker set at 400 rpm. The incubation was stopped by vacuum filtration onto 0.5% poly-ethylene amine (PEI) presoaked GF/C filters using a 96-well FilterMate™ harvester (Perkin Elmer) followed by four washes with 300 μl/well ice-cold wash buffer (50 mM HEPES, 500 mM NaCl, pH7.4). Filter plates were then dried for 60 min at room temperature and the bottom of the plates was sealed with backing tape UniFilter-96. Finally, 50 μl/well scintillation counter cocktail (Microscint20, Packard) was added and the radioactivity was counted in the Packard TopCount NXT scintillation counter. IC₅₀ values (the half maximal inhibitory concentration of the agonist) were calculated by nonlinear regression analysis of sigmoidal dose-response curves.

Row | Binder | Ki [nM]
1 | Isovaleryl-APEK([AEEA-AEEA-γGlu-C18 diacid])PEEDASPEEIQRYYVELRHYYNWLTRQRY-NH2 (SMILES CC[C@H](C)[C@H](NC(=O)[C@H](CCC(=O)O)NC(=O)[C@H](CCC(=O)O)NC(=O)[C@@H]1CCCN1C(=O)[C@H](CO)NC(=O)[C@H](C)NC(=O)[C@H](CC(=O)O)NC(=O)[C@H](CCC(=O)O)NC(=O)[C@H](CCC(=O)O)NC(=O)[C@@H]1CCCN1C(=O)[C@H](CCCCNC(=O)COCCOCCNC(=O)COCCOCCNC(=O)CC[C@H](NC(=O)CCCCCCCCCCCCCCCCC(=O)O)C(=O)O)NC(=O)[C@H](CCC(=O)O)NC(=O)[C@@H]1CCCN1C(=O)[C@H](C)NC(=O)CC(C)C)C(=O)N[C@@H](CCC(N)=O)C(=O)N[C@@H](CCCNC(=N)N)C(=O)N[C@@H](Cc1ccc(O)cc1)C(=O)N[C@@H](Cc1ccc(O)cc1)C(=O)N[C@H](C(=O)N[C@@H](CCC(=O)O)C(=O)N[C@@H](CC(C)C)C(=O)N[C@@H](CCCNC(=N)N)C(=O)N[C@@H](Cc1c[nH]cn1)C(=O)N[C@@H](Cc1ccc(O)cc1)C(=O)N[C@@H](Cc1ccc(O)cc1)C(=O)N[C@@H](CC(N)=O)C(=O)N[C@@H](Cc1c[nH]c2ccccc12)C(=O)N[C@@H](CC(C)C)C(=O)N[C@H](C(=O)N[C@@H](CCCNC(=N)N)C(=O)N[C@@H](CCC(N)=O)C(=O)N[C@@H](CCCNC(=N)N)C(=O)N[C@@H](Cc1ccc(O)cc1)C(N)=O)[C@@H](C)O)C(C)C) [Compound 9] | 1.22
2 | Isovaleryl-APEK([AEEA-AEEA-γGlu-C18 diacid])PEADASPEETQRYYVSLRHYYNWLTRQRY-NH2 (SMILES CC(C)CC(=O)N[C@@H](C)C(=O)N1CCC[C@H]1C(=O)N[C@@H](CCC(=O)O)C(=O)N[C@@H](CCCCNC(=O)COCCOCCNC(=O)COCCOCCNC(=O)CC[C@H](NC(=O)CCCCCCCCCCCCCCCCC(=O)O)C(=O)O)C(=O)N1CCC[C@H]1C(=O)N[C@@H](CCC(=O)O)C(=O)N[C@@H](C)C(=O)N[C@@H](CC(=O)O)C(=O)N[C@@H](C)C(=O)N[C@@H](CO)C(=O)N1CCC[C@H]1C(=O)N[C@@H](CCC(=O)O)C(=O)N[C@@H](CCC(=O)O)C(=O)N[C@H](C(=O)N[C@@H](CCC(N)=O)C(=O)N[C@@H](CCCNC(=N)N)C(=O)N[C@@H](Cc1ccc(O)cc1)C(=O)N[C@@H](Cc1ccc(O)cc1)C(=O)N[C@H](C(=O)N[C@@H](CO)C(=O)N[C@@H](CC(C)C)C(=O)N[C@@H](CCCNC(=N)N)C(=O)N[C@@H](Cc1c[nH]cn1)C(=O)N[C@@H](Cc1ccc(O)cc1)C(=O)N[C@@H](Cc1ccc(O)cc1)C(=O)N[C@@H](CC(N)=O)C(=O)N[C@@H](Cc1c[nH]c2ccccc12)C(=O)N[C@@H](CC(C)C)C(=O)N[C@H](C(=O)N[C@@H](CCCNC(=N)N)C(=O)N[C@@H](CCC(N)=O)C(=O)N[C@@H](CCCNC(=N)N)C(=O)N[C@@H](Cc1ccc(O)cc1)C(N)=O)[C@@H](C)O)C(C)C)[C@@H](C)O) [Compound 10] | 1.28
